Experimental data reported in patent US20100331256.
Where “and” joins values, the source holds several entries; their conditions need not be identical. Equal entries are not always repeated.

Assays:
[1] = target: T1, Analog BA: ER-CNP22, K4R
T1 chain: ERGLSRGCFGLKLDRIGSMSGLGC

[2] = target: T2, Analog CL: GVPQVSTSTGANQQ-CNP22, K4R (HSA fragment)
T2 chain: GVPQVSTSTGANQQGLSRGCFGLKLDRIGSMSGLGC

[3] = target: T3, Analog H: CNP22, Beta-2-F7 (3-amino-2-phenylpropionyl)
T3 chain: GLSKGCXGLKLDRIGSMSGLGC

[4] = target: T4, Analog AT: CNP22, G1E, K4E
T4 chain: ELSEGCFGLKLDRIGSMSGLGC

[5] = target: T5, Analog CG: GANSS-CNP22, K4R
T5 chain: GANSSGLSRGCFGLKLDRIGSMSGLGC

[6] = target: T6, (PEO12)-Biotin-CNP22
T6 chain: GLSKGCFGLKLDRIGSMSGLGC

[7] = target: T7, Analog CC: DLRVDTKSRAAWAR-CNP22
T7 chain: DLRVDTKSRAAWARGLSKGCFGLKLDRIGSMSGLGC

[8] = target: T8, PEG1K-GANRR-CNP22(K4R)
T8 chain: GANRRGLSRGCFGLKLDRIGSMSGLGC

[9] = target: T9, Analog B: CNP22, N-methyl-F7 (methylated amide)
T9 chain: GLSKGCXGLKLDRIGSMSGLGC

[10] = target: T10, Analog AC: CNP22, K4R, G8T
T10 chain: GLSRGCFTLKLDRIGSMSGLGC

[11] = target: T11, wild-type C-type natriuretic peptide 22 (CNP22)
T11 chain: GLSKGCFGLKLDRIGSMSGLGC

[12] = target: T12, PEG1K-CNP22
T12 chain: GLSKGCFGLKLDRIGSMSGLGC

[13] = target: T13, PEO12-R-CNP22(K4R)
T13 chain: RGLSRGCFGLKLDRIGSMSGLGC

[14] = target: T14, PEG2K-CNP22
T14 chain: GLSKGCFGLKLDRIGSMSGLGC

[15] = target: T15, Analog E: CNP22, D-F7 (D-Phe)
T15 chain: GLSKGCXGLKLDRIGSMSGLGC

[16] = target: T16, Analog AV: Pentanoic acid (N-term.)-CNP22, G1E, K4E (not fully specified)
T16 chain: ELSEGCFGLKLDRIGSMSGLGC

[17] = target: T17, Analog G: CNP22, 3-chloro-F7
T17 chain: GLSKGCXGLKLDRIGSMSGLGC

[18] = target: T18, Analog V: CNP22, K4G, 3,4-dichloro-F7
T18 chain: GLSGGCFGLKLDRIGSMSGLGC

[19] = target: T19, PEO12-GANPR-CNP22(K4R)
T19 chain: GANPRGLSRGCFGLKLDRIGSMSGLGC

[20] = target: T20, PEO12-CNP22
T20 chain: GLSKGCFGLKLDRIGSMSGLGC

[21] = target: T21, Analog F: CNP22, t-butyl-G8
T21 chain: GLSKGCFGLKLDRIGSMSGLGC

[22] = target: T22, Analog AY: GANRR-CNP22, K4R (CNP-27)
T22 chain: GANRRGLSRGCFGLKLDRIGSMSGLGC

[23] = target: T23, PEO12-GANRR-CNP22(K4R)
T23 chain: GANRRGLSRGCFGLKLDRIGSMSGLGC

[24] = target: T24, Analog P: CNP22, K4G
T24 chain: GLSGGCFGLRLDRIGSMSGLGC

[25] = target: T25, Analog BK: CNP22, K4R, G15S
T25 chain: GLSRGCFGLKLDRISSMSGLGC

[26] = target: T26, Analog AW: Heptanoic acid (N-term.)-CNP22, G1E, K4E
T26 chain: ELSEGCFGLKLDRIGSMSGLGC

[27] = target: T27, Analog CS: GQEHPNARKYKGANPK-CNP22 (modified CNP37) (not fully specified)
T27 chain: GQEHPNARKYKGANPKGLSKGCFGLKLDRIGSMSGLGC

[28] = target: T28, PEO24-GANRR-CNP22(K4R)
T28 chain: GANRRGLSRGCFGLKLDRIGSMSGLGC

[29] = target: T29, PEG20K-CNP22
T29 chain: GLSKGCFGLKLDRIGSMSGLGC

[30] = target: T30, Analog CF: GQPREPQVYTLPPS-CNP22 (IgG1(Fc) fragment)
T30 chain: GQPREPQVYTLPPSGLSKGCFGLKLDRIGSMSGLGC

[31] = target: T31, Analog M: CNP22, N-methyl-L9, N-methyl-L11
T31 chain: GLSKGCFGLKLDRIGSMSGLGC

[32] = target: T32, Analog A: CNP22, C6-CH2-NH (reduced carbonyl)
T32 chain: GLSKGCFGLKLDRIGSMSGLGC

[33] = target: T33, Analog BB: Heptanoic acid (N-term.)-CNP22, G1E
T33 chain: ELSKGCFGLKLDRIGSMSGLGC

[34] = target: T34, PEO24-CNP22
T34 chain: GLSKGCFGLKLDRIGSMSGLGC

[35] = target: T35, Analog BM: CNP53
T35 chain: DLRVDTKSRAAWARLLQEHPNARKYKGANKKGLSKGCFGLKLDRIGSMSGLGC

[36] = target: T36, Analog X: CNP22, K4G, 3-methyl-F7
T36 chain: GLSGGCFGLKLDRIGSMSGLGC

[37] = target: T37, Analog AH: CNP22, K4R
T37 chain: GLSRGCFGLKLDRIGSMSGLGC

[38] = target: T38, Analog AZ: R-CNP22, K4R
T38 chain: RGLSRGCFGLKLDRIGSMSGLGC

[39] = target: T39, PEG2K-CNP17
T39 chain: CFGLKLDRIGSMSGLGC

[40] = target: T40, Analog L: CNP22, N-methyl-L9, N-methyl-L11, N-methyl-L20
T40 chain: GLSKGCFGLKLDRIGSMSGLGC

[41] = target: T41, PEG5K-CNP22
T41 chain: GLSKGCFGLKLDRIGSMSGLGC

[42] = target: T42, Analog K: CNP22, N-methyl-L9, N-methyl-L20
T42 chain: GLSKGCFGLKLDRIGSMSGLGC

[43] = target: T43, PEO4-(PEO12)3 (branched)-CNP22
T43 chain: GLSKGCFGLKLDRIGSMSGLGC

[44] = target: T44, Analog CK: GQPREPQVYTGANQQ-CNP22, K4R (IgG1 fragment)
T44 chain: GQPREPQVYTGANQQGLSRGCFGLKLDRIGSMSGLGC

[45] = target: T45, Analog BL: QEHPNARKYKGANKK-CNP22 (CNP37)
T45 chain: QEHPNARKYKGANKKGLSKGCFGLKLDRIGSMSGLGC

[46] = target: T46, Analog BJ: CNP22, K4R, G15N
T46 chain: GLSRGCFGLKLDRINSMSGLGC

[47] = target: T47, Analog N: D-CNP22 (all D-amino acids)
T47 chain: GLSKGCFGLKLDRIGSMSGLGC

B1: recombinant human neutral endopeptidase (NEP) (protein)
chain: DDGICKSSDCIKSAARLIQNMDATTEPCTDFFKYACGGWLKRNVIPETSSRYGNFDILRDELEVVLKDVLQEPKTEDIVAVQKAKALYRSCINESAIDSRGGEPLLKLLPDIYGWPVATENWEQKYGASWTAEKAIAQLNSKYGKKVLINLFVGTDDKNSVNHVIHIDQPRLGLPSRDYYECTGIYKEACTAYVDFMISVARLIRQEERLPIDENQLALEMNKVMELEKEIANATAKPEDRNDPMLLYNKMTLAQIQNNFSLEINGKPFSWLNFTNEIMSTVNISITNEEDVVVYAPEYLTKLKPILTKYSARDLQNLMSWRFIMDLVSSLSRTYKESRNAFRKALYGTTSETATWRRCANYVNGNMENAVGRLYVEAAFAGESKHVVEDLIAQIREVFIQTLDDLTWMDAETKKRAEEKALAIKERIGYPDDIVSNDNKLNNEYLELNYKEDEYFENIIQNLKFSQSKQLKKLREKVDKDEWISGAAVVNAFYSSGRNQIVFPAGILQPPFFSAQQSNSLNYGGIGMVIGHEITHGFDDNGRNFNKDGDLVDWWTQQSASNFKEQSQCMVYQYGNFSWDLAGGQHLNGINTLGENIADNGGLGQAYRAYQNYIKKNGEEKLLPGLDLNHKQLFFLNFAQVWCGTYRPEYAVNSIKTDVHSPGNFRIIGTLQNSAEFSEAFHCRKNSYMNPEKKCRVW
NEP cleavage t1/2 [1]: 1.5 h | NEP cleavage t1/2 [2]: > 2.67 h | NEP cleavage t1/2 [3]: 1.33 h | NEP cleavage t1/2 [4]: 1 h | NEP cleavage t1/2 [5]: 1.58 h | NEP cleavage t1/2 [6]: 2.33 h | NEP cleavage t1/2 [7]: > 2.67 h | NEP cleavage t1/2 [8]: > 2.67 h | NEP cleavage t1/2 [9]: 1.33 h | NEP cleavage t1/2 [10]: 1.33 h | NEP cleavage t1/2 [11]: 1.33 h | NEP cleavage t1/2 [12]: > 2.67 h | NEP cleavage t1/2 [13]: ≥ 2.67 h | NEP cleavage t1/2 [14]: > 2.67 h | NEP cleavage t1/2 [15]: 2.17 h | NEP cleavage t1/2 [16]: 2 h | NEP cleavage t1/2 [17]: 2.25 h | NEP cleavage t1/2 [18]: 1.13 h | NEP cleavage t1/2 [19]: 1.33 h | NEP cleavage t1/2 [20]: ≥ 2.67 h | NEP cleavage t1/2 [21]: 1.33 h | NEP cleavage t1/2 [22]: 1.08 h | NEP cleavage t1/2 [23]: > 2.67 h | NEP cleavage t1/2 [24]: 1.13 h | NEP cleavage t1/2 [25]: ≥ 2.67 h | NEP cleavage t1/2 [26]: < 0.333 h | NEP cleavage t1/2 [27]: > 2.67 h | NEP cleavage t1/2 [28]: > 2.67 h | NEP cleavage t1/2 [29]: > 2.67 h | NEP cleavage t1/2 [30]: > 2.67 h | NEP cleavage t1/2 [31]: > 2.67 h | NEP cleavage t1/2 [32]: 0.917 h | NEP cleavage t1/2 [33]: 0.75 h and 1.08 h | NEP cleavage t1/2 [34]: > 2.67 h | NEP cleavage t1/2 [35]: > 2.67 h | NEP cleavage t1/2 [36]: 1.13 h | NEP cleavage t1/2 [37]: 1.33 h | NEP cleavage t1/2 [38]: ≥ 2.67 h | NEP cleavage t1/2 [39]: > 2.67 h | NEP cleavage t1/2 [40]: 0.5 h | NEP cleavage t1/2 [41]: > 2.67 h | NEP cleavage t1/2 [42]: 1.33 h | NEP cleavage t1/2 [43]: > 2.67 h | NEP cleavage t1/2 [44]: ≥ 2.67 h | NEP cleavage t1/2 [45]: > 2.67 h | NEP cleavage t1/2 [46]: 2.5 h | NEP cleavage t1/2 [47]: > 2.67 h
